Laboratory results from the Human Domainome abundance scans (Beltran et al. 2025).

B1: PMS1 protein homolog 1, residues 572 to 637; numbered along this chain, P54277 (parent)
chain: KKPMSASALFVQDHRPQFLIENPKTSLEDATLQIEELWKTLSEEEKLKYEEKATKDLERYNSQMKR

Variants of: B1
Assay: abundance fitness (aPCA) (normalised: wild type 0, dead -1); higher = more abundant; growth selection in yeast, the domain comes from the species named
Settings: Homo sapiens

Abundance fitness, by site and new letter:
K46: W -1.17 | A -0.395 | M -0.508 | G -0.84 | Q -0.106 | D -0.848 | L -0.685 | R -0.058 | C -0.569 | H -0.353 | E -1.08 | F -1.21 | T -0.432 | S -0.641 | V -0.431 | N -1.37
S62: C 0.12 | A -0.017
T54: W -0.346 | Y -0.331 | S 0.015 | L -0.009 | D -0.016 | K 0.046 | P -0.338 | I -0.186 | C -0.164 | V -0.12 | G 0.07 | N -0.045 | A 0.035 | E 0.096
E58: T -0.155 | R -0.025 | Y -0.267 | D -0.047 | V -0.108 | C -0.18 | S -0.099 | F -0.321 | K -0.043 | P -0.257 | Q -0.005 | I -0.179 | N -0.307 | M -0.169 | W -0.456 | A -0.113 | H -0.09 | G -0.158
A53: S -0.121 | E -0.227 | M -0.387 | W -0.79 | T -0.345 | D -0.498 | N -0.363 | C -0.211 | V -0.26 | I -0.834 | P -0.377 | G -0.52 | Y -0.22 | F -0.212 | L -0.432 | Q -0.48
K52: I -0.664 | G -0.213 | P -0.38 | D -0.357 | W -0.33 | L -0.178 | H -0.272 | S -0.184 | Q -0.009 | M 0.102 | A -0.101 | C -0.076 | V -0.229 | N -0.285 | Y -0.302 | F -0.507 | R -0.041 | T -0.288 | E -0.059
L47: M 0.017 | H 0.032 | E -0.184 | D -0.157 | N 0.202 | S -0.039 | A 0.058 | F -0.085 | P -0.975 | R -0.091 | T 0.005 | C -0.149 | W -0.141 | K -0.235 | V 0.055
D56: P -0.423 | H -0.172 | W -0.258 | T -0.145 | L -0.142 | K -0.353 | Q -0.162 | S -0.035 | V -0.348 | F -0.244 | E 0.104 | I -0.306 | N -0.283 | G -0.144 | R -0.128 | M -0.231 | C -0.163 | A -0.049
E51: I -0.127 | G -0.237 | S -0.158 | T -0.057 | M -0.132 | N -0.062 | A -0.088 | Y -0.513 | R -0.048 | W -0.286 | Q -0.043 | H -0.131 | K -0.156 | V -0.088 | F -0.224 | L -0.048 | D -0.072 | C -0.215
Y60: T -0.039 | Q -0.092 | E -0.103 | N 0.022 | G -0.046 | W -0.117 | D 0.026 | I -0.315 | A -0.178 | F 0.063 | R -0.07 | C -0.002 | P -0.109 | M -0.339 | S 0.04 | V -0.083 | L -0.186 | K -0.075 | H -0.075
S42: T -0.078 | C -0.28 | P -0.065 | V -0.56 | E -0.101 | D -0.045 | G -0.165 | Y -1.21 | N -0.135 | M -0.813 | R -0.24 | K -0.072 | W -1.34 | Q -0.322 | L -0.801 | A -0.085
K48: P -0.09 | V -0.008 | C 0.041 | M -0.115 | T -0.205 | Q -0.178 | H -0.426 | G -0.28 | R -0.127 | A -0.095 | W -0.187 | F -0.121 | I -0.309 | E -0.202 | Y -0.078 | N -0.375 | L -0.081 | S -0.135
E45: F -0.606 | M -0.21 | P -0.811 | I -0.085 | K -0.244 | D -0.133 | T -0.214 | W -0.78 | V -0.169 | H -0.123 | R -0.187 | S -0.198 | L -0.262 | A -0.258 | Y -0.787 | N -0.476 | Q -0.142 | C -0.327
L41: W -0.617 | R -0.202 | Y -0.59 | K -0.317 | Q -0.052 | N -0.501 | V -0.023 | M -0.145 | T -0.007 | P -0.622 | S -0.069
K55: G -0.137 | P -0.339 | A 0.059 | I -0.001 | L -0.065 | S -0.067 | N -0.103 | W -0.16 | M -0.053 | D -0.045 | R -0.076 | V -0.016 | T -0.058 | C -0.086
E44: V -0.113 | A -0.077 | W -0.433 | C -0.155 | Q -0.142 | R -0.124 | M -0.408 | S -0.05 | I -0.345 | F -0.284 | T -0.135 | G -0.064 | Y -0.317 | H -0.071 | D -0.081 | N -0.385
R59: V -0.021 | K -0.171 | D 0.17 | Q 0.087 | A 0.05 | L 0.001 | S -0.017 | H -0.085 | W -0.126 | F -0.079 | M -0.046 | N -0.169 | E 0.05 | T -0.063 | C -0.121 | I 0.088
E43: G -0.09 | T 0.032 | N 0.046 | S 0 | W -0.046 | P -0.086 | V -0.026 | D 0.029 | I -0.133 | Q 0.007 | H -0.087 | L -0.06 | F -0.234 | A 0.004 | M -0.039 | C -0.102 | Y -0.095 | R -0.025 | K -0.236
N61: M -0.128 | P -0.197 | A -0.15 | I -0.464 | E 0.047 | W -0.489 | L -0.333 | T -0.029 | K 0.007 | G -0.201 | C -0.521 | F -0.515 | S -0.092 | D -0.136 | R -0.15 | Q -0.098
L57: K -0.123 | D 0.024 | C -0.084 | M 0.03 | Q -0.115 | Y -0.18 | P -0.342 | N -0.224 | F -0.17 | G -0.14 | T -0.19 | R -0.058 | S -0.135 | H -0.112 | W -0.103 | E -0.066 | I -0.136 | V -0.119
Y49: M -0.966 | W -0.013 | V -0.847 | T -0.614 | S -0.676 | H -0.616 | C -0.621 | P -0.581 | Q -0.496 | K -0.583 | G -0.761 | D -0.634 | E -0.819 | L -0.92 | R -0.516 | N -0.717 | A -0.507
